The source of these data is patent US20210369812A1, “OSTEOINDUCTIVE PEPTIDES, COMPOSITIONS, IMPLANTS, AND METHODS OF USE” (The Board of Regents of the University of Oklahoma, priority 2018, published 2021).

The target of one experiment is T1, BMPR1A (Homo sapiens, UniProt P36894).
T1 construct: purchased G&P Biosciences
Nature of the experiment: Enzyme-linked immune sorbent assay for receptor binding (BMPR1A). Conditions: peptide on p3 of M13 phage; absorbance 450 nm; n=4; vs wild type phage. From the text: Groups having the same lowercase letter assigned (above the bar) were not statistically different from each other. Groups having different letters assigned (above the bar) were statistically different from each other. […] The primary antibody was mouse anti-g3p (p8) IgG. The secondary antibody was anti-mouse IgG conjugated with horseradish peroxidase. The substrate, 3,3′,5,5′-Tetramethylbenzidine was detected at 450 nm after stopping the reaction with 1 M HCl.
Blocking buffer (0.1 M NaHCO3 (pH 8.6), 5 mg/ml BSA. Filter sterilized, stored at 4° C.) was prepared. TBS (50 mM Tris-HCl (pH 7.5), 150 mM NaCl, autoclaved, stored at room temperature) was prepared. Separate solutions of the target receptors were then made. For BMPR1A, a 10 μg/ml stock solution was made. For BMPR2, a 10 μg/ml solution was also made. Separate wells with n=4 for each different peptide bearing phage group were then coated with one of the receptors. The coating was done by adding 100 μl of the target solution to wells of a 96-well plate followed by swirling until the surface was completely wet. The plates were then allowed to incubate overnight at 4° C. with gentle agitation in a humidified container (a plastic box lined with damp paper towels). Any excess target solution was then removed, and the plate was slapped face-down on a clean paper towel. The wells of the plate were then blocked with 200 μl of blocking buffer for 1 hour at room temperature. […] The blocking buffer was then removed from each plate followed by 5 washes with 200 μl of TBST. Each time the plate was slapped against a clean section of paper towel face-down. […] After a brief pilot test, it should be noted that using 10^10 phage/ml was determined to work best, but other concentrations of virus also worked consistently. […] Then, […] of freshly prepared 3,3′,5,5′-Tetramethylbenzidine (TMB) was added to each well and the absorbance at 370 nm and 652 nm was monitored for 1 hour using an ELISA plate reader. […] The absorbance at 450 nm for each well was then measured.

Experiment [1] deals with rat radial bone defect model. Nature of the experiment: Rat radial bone defect model, Micro-CT. Conditions: phage-coated titanium scaffold seeded with hMSCs; 4 weeks. The experiment is classed as in vivo. As to the method:
The titanium alloy scaffolds were rinsed 3 times in distilled water followed by autoclaving. The scaffolds were then coated in poly-L-lysine by soaking in 2.5 ml of poly-L-lysine per 5 scaffolds in a 24-well cell culture plate for 30 minutes. The poly-L-lysine was then discarded, and the scaffolds were allowed to dry in a sterile hood overnight. In a sterile cell culture hood, 2 scaffolds were loaded into the sterile freeze casting holder (sterilized by autoclaving). 2 ml of sterile, filtered phage solution (3×10^13 phages/ml) was pipetted into the casting holder and directly into the pores of the titanium scaffolds. The solution was allowed to incubate at room temperature for 30 minutes so that phages could stick better to the scaffold. The scaffolds and phage solution were then freeze casted in the double-sided freeze casting machine with a temperature drop of 3° C./min on the lower contact point and a constant 0° C. on the upper contact point. The final temperature for the lower contact point was −135° C. The frozen scaffold and solution were then freeze dried overnight. For cell seeding, the scaffold was then soaked overnight in cell medium followed by seeding 3.6×10^4 hMSCs onto the scaffold the next day in new medium. After 1 day of culturing, the scaffolds were implanted into the rat radial bone defect model. […]

T1 sequence (P36894 24-152 limits assumed): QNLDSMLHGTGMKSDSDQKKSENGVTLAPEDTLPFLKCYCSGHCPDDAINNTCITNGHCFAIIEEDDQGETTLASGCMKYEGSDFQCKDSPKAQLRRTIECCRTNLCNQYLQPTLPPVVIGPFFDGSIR

For the sequence “SGTQDSMVGWNK (Completely synthesized in the lab - Ph.D.-12 Phage Display Peptide Library Kit (New England Biolabs))”, the “Relative binding strength in ELISA to BMPR1A” value with BMPR1A is on record as “best binders”.

In the case of “VHVPLHRGAVSA (Completely synthesized in the lab - Ph.D.-12 Phage Display Peptide Library Kit (New England Biolabs))”, in the experiment with BMPR1A, the “Relative binding strength in ELISA to BMPR1A” value was “best binders”. The “Healing of bone defect (Micro-CT)” value in experiment [1] is recorded as “Increased healing was best observed”.
